Positions count from the first letter of the chain named. Values belong to the binder of their own block, whether it stands above or below them.
Assays:
[1] = biological target: T1, recombinant hCCR8 N-terminus fused at the N-terminal of Fc region of human IgG1 (human); experiment: SPR (Biacore 3000), Fab flowed over captured CCR8-fc; column head printed 'K0' (KD)
T1 construct: also called recombinant huCCR8-N terminus antigen; huCCR8 N-terminus protein; not shown: Fc region of human IgG1
Experimental: (§1) FIGS. 1A-1D: Binding of anti-CCR8 Fabs to recombinant huCCR8-N terminus antigen (Seq No.1). Binding affinity of anti-CCR8 Fabs for huCCR8 N-terminus protein was determined by Biacore analysis. Digested anti-CCR8 Fab fragments were flowed over captured antigen.
(§2) The affinity of the candidate antibodies for human CCR8 was assessed using SPR on a Biacore 3000 instrument. Anti-CCR8 Fab fragments were flowed over the cells in the chip with multiple blank (running buffer) injections also run to subtract system artifacts. The data were aligned, double referenced, and fit using SCRUBBER 2™ software (BioLogic Software, Pty, Australia). […] The binding of anti-CCR8 antibodies to CCR8 was then examined in HEK293 cells or P815 cells transfected with full-length hCCR8.

[2] = biological target: T2, full length human CCR8 (hCCR8) (human, UniProt P51685 1-355); experiment: cell-based or functional assay
[3] = biological target: T2, full length human CCR8 (hCCR8); experiment: cell-based or functional assay; remark: listed apart in the source
[4] = biological target: T1, recombinant hCCR8 N-terminus fused at …; experiment: SPR, Biacore 3000; Fab flowed over captured hCCR8 N-terminus-Fc
Experimental: as §1, §2

T1 sequence (chain, as listed by the source): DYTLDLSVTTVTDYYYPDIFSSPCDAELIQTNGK

average IC50 of inhibition of CCL1-mediated chemotaxis of hCCR8 P815 cells [2]: 0.414 nM
B2: Fab fragment of anti-CCR8 antibody 1434 (Fab, V domains shown)
VH: EVQLVESGGGLVQPGGSLRLSCAASGFPFEPFAMNWVRQAPGKGLEWVGRIRSKANNYATYYADSVKDRFTISRDDSKRSLYLLMNSLKFEDTAVYYCVRGRENNYGYAMDYWGQGTTVTVSS
VL: DVVMTQSPLSLPVTLGQPASISCRSSQSLLHSNGITYLYWFQQRPGQSPRRLIYRMSNLASGVPDRFSGSGSGTDFTLKISRVEAEDVGVYYCMQHLTYPFTFGIGTKVEIK

Kd [1]: 0.385 nM
average IC50 of inhibition of CCL1-mediated chemotaxis of hCCR8 P815 cells [2]: 0.15 nM
B3: engineered anti-CCR8 Fab 953 (Fab, V domains shown)
VH: B2 VH with L11V, G16R, G49A, T71A, D76N, R79S, S80T, N86H, K89R, N105R
VL: B2 VL with L9P, P18S, Q42L, R51L, K79R
notes: Fab made by digesting the antibody

IC50, inhibition of chemotaxis of hCCR8-transfected P815 cells to 1 nM CCL1 (intact IgG1, Cell Titer Glo) [3]: 0.00403 µg/mL
B4: anti-CCR8 antibody 1187 (antibody, V domains shown)
VH: B2 VH with L11V, G16R, G49A, T71A, D76N, S80T, N86H, K89R
VL: B2 VL with L9P, P18S, Q42L, R51L, K79R

The next lines start with the binder.

B1: engineered anti CCR8 Fab 1047 (Fab, V domains shown)
VH: B2 VH with L11V, G16R, G49A, T71A, D76N, R79S, S80T, N86H, K89R
VL: B2 VL with L9P, P18S, Q42L, R51L, K79R
notes: Fab made by digesting the antibody; also called Fab fragment of 1047
Kd [1]: 0.876 nM
average IC50 of inhibition of CCL1-mediated chemotaxis of hCCR8 P815 cells [2]: 1.09 nM

B5: Fab fragment of anti-CCR8 antibody 1187 (Fab, V domains shown)
VH: B2 VH with L11V, G16R, G49A, T71A, D76N, S80T, N86H, K89R
VL: B2 VL with L9P, P18S, Q42L, R51L, K79R
notes: also called Fab 51
Kd [4]: 0.647 nM
fold improvement of binding affinity against the original anti-CCR8 antibody candidate [4]: 2.5 fold
IC50 of inhibition of CCL1-mediated chemotaxis of hCCR8 P815 cells [2]: ~0.035 µg/mL
average IC50 of inhibition of CCL1-mediated chemotaxis of hCCR8 P815 cells [2]: 0.254 nM
